Consider one molecule from US20230392126A1, “TISSUE ORGANOIDS” (priority 2016, published 2023).

Data set [1] relates to mouse epidermal stem cells. The data set is described as follows: Cell proliferation and differentiation of engineered mouse epidermal cells in vitro (cell cycle FACS, calcium shift western blot). The data set is classed as cell-based. The protocol: (§1) Primary human neonatal epidermal keratinocytes were obtained from Thermo Fischer® (C0015C), and cultured with Epilife® medium (Thermo Fischer, M-EPICF-500) with manufacturer's recommended procedures. Calcium shift was performed to induce differentiation of primary keratinocytes by increasing the calcium concentration in culture media to 1.5 mM.
(§2) Propidium iodide (PI) staining followed by flow cytometry were used to determine the effect of cell cycle profiles. Mouse and human epidermal cells were cultured in two 6 cm cell culture dish for 24 hours, respectively. Cells were trypsinized, and 1×10^5 cells from each dish were collected, followed by one PBS wash. […] After staining, the cells were analyzed immediately using flow cytometer BD FACSCanto™ II (BD Biosciences, San Jose, CA) with an excitation wavelength at 488 nm and emission at 585 nm. DNA content and histograms of cell cycle distribution were analyzed using FlowJo™ software, version 10 (FLOWJO LLC, OR).
(§3) Western blotting was performed as described previously (Blanpain et al.). […] Visualization and quantification was carried out with the LI-COR Odyssey® scanner and software (LI-COR Biosciences).
(§4) Propidium iodide (PI) staining followed by flow cytometry were used to determine the effect of cell cycle profiles. […] DNA content and histograms of cell cycle distribution were analyzed using FlowJo™ software, version 10 (FLOWJO LLC, OR). […]
On the technique in general: In western blotting, separated proteins are transferred to a membrane and probed.

Data set [2] relates to human epidermal keratinocytes. The data set is described as follows: Cell proliferation and differentiation of engineered human epidermal cells in vitro. In kind it is cell-based. The method, then:
as §1, §2, §3, §4

The nature of data set [3]: hBChE in blood by ELISA, mice grafted with mouse skin organoids. The data set is classed as in vivo. The source says:
To efficiently transplant mouse epidermal progenitor cells, a new organotypic culture model with mouse epidermal progenitor cells was developed in vitro by culturing the cells on top of acellularized mouse dermis. Exposure to the air/liquid interface can induce stratification of cultured cells to generate a skin-like organoid in vitro. […] To investigate the potential therapeutic effect of hBChE expression in vivo, we transplanted the organoids to isogenic host animals (CD1 and C57BL/6) (FIGS. 22A and 22B-C). […] Expression of hBChE in grafted animals was stable for more than 10 weeks (FIG. 22H).
A general note: An ELISA detects its analyte on a solid surface through an enzyme-linked reagent.

The nature of data set [4]: hBChE in blood by ELISA, nude mice grafted with human skin organoids.
Another data set deals with mouse epidermal cells. The data set is described as follows: Expression and secretion of hBChE by immunoblots and ELISA (mouse epidermal cells). The following applies: engineered mouse epidermal cells.

B1: hBChE: modified human butyrylcholinesterase (E30-6, SEQ ID NO: 41), cocaine hydrolase, expressed from engineered epidermal cells / skin grafts (protein)
chain: MHSKVTIICIRFLFWFLLLCMLIGKSHTEDDIIIATKNGKVRGMNLTVFGGTVTAFLGIPYAQPPLGRLRFKKPQSLTKWSDIWNATKYANSCCQNIDQSFPGFHGSEMWNPNTDLSEDCLYLNVWIPAPKPKNATVLIWIYGGGFQTGTSSLHVYDGKFLARVERVIVVSMNYRVGALGFLALPGNPEAPGNMGLFDQQLALQWVQKNIAAFGGNPKSVTLFGESSGAASVSLHLLSPGSHSLFTRAILQSGSANAPWAVTSLYEARNRTLNLAKLTGCSRENETEIIKCLRNKDPQEILLNEAFVVPYGTALGVNFGPTVDGDFLTDMPDILLELGQFKKTQILVGVNKDEGTWFLVGGAPGFSKDNNSIITRKEFQEGLKIFFPGVSEFGKESILFHYTDWVDDQRPENYREALGDVVGDYNFICPALEFTKKFSEWGNNAFFYYFEHRSSKLPWPEWMGVMHGYEIEFVFGLPLERRDNYTKAEEILSRSIVKRWANFAKYGNPNETQNNSTSWPVFKSTEQKYLTLNTESTRIMTKLRAQQCRFWTSFFPKVLEMTGNIDEAEWEWKAGFHRWNNYMMDWKNQFNDYTSKKESCVGL
modifications: Human mutant BChE
As for B1, the “effect of expression on cell proliferation / differentiation in vitro” value in data set [1] and in data set [2] was “did not significantly change cell proliferation” in each case. Moreover, the “duration of stable hBChE expression in grafted animals” value in data set [3] (hosts with intact immune systems) is on record as “more than 10 weeks”. The figures for the “level of human BChE in the blood” value in data set [3] (mice grafted with hBChE-expressing mouse cells) and in data set [4] (human hBChE-expressing grafts) were “significantly elevated levels of human BChE in the blood” and “significantly levels of human BChE in the blood”, respectively. The “duration of stable hBChE expression in vivo” value in data set [4] (human grafts) is reported as “more than 8 weeks”. For the same molecule, in the data set with mouse epidermal cells, the “expression and secretion of hBChE” value was “robust expression and secretion of hBChE”.
